Non-standard residues stand in square brackets, D forms with d. No end group written: not given here. *: point of attachment. Biotin = O=C1N[C@H]2[C@H](CS[C@H]2CCCCC(=O)*)N1; sY = N[C@@H](Cc1ccc(OS(=O)(=O)O)cc1)C(=O)O
B1: 2E12 (antibody, V domains shown)
VH: QVQLQQSGAELARPGASVKLSCKASGYTFTNYGLNWVKQRTGQGLEWIGEIYPRSGNTYYNEKFKGKATLTADKSSSTAYMQLSSLTSEDSAVYFCATEGAYWGQGTLVTVSA
VL: DIVMTQTPLTLSVTIGQPASISCKSSQSLLHGNGKTYLNWLLQRPGQSPKLLIYLVSKLESGIPDRFSGSGSGTDFTLEISRVEAEDLGIYYCLQSTHFPRTFGGGTKLEIK
notes: Mouse hybridoma mAb; only variable domains given
B2: 16L15 (antibody, V domains shown)
VH: DVKLVESGGGLVKLGGSLKLSCAASGFTFSSYYMSWVRQTPEKRLEWVATISNGGGSTYYPDSVKDRFTISRDNAKNTLYLQMSSLNSEDTAVYYCAKPLYYSNPWFAYWGQGTLVTVSA
VL: DVLLTQTPLSLPVSLGDQASISCRSSQSIVHSNGNTYLEWYLQKPGQSPKLLIYKVSNRFSGVPDRFSGSGSGTDFTLKISRVEAEDLGVYYCFQGSHVPRTFGGGTKLEIK
notes: From mouse immunisation; only variable domains given
B3: 19I01 (antibody, V domains shown)
VH: EVQLVESGGGLVKPGGSRKLSCAASGFTFSDYGMHWVRQAPEKGLEWVAYISSGSSTIYYADTVKGRFTISRDNAKNTLFLQMTSLRSEDTAMYYCARGVDGYWGQGTTLTVSS
VL: DVVMTQTPLSLPVSLGDQASISCRSSQSLVHSNGNTYLHWYLQKPGQSPKFLIYKVSNRFSGVPDRFSGSGSGTDFTLKISRVEAEDLGVYFCSQTTHVPLTFGAGTKLELK
notes: From mouse immunisation; only variable domains given; also called 19101
B4: 18F02 (antibody, V domains shown)
VH: QVQLQQPGAELVKPGASVKLSCKASGYTFTSYWMHWVKQRPGQGLEWIGMIHPNSGRTNYNEKFKSKATLTVDKSSSTAYMQLSSLTSEDSAVYYCARSDYWGQGTTLTVSS
VL: DIVMTQAAFSNPVTLGTSASISCRSSKSLLHSDGITYLYWFLQRPGQSPQLLIYRMSNLASGVPDRFSGSGSGTDFTLRISRVEAEDVGVYYCAQMLEFPRTFGGGTKLEIK
notes: as for B2
B5: 5E12 (antibody, V domains shown)
VH: EIQLQQSGAELVRPGASVKLSCTASGFNIKDDYIHWVKQRPEQGLEWIGRIDPANGNTKSAPKFQDKATITADTSSNTAYLHLSSLTSEDTAVYYCSIRFAYWGQGTLVTVSA
VL: DVVMTQTPLSLSVSLGDQASISCRSSQSLVYRNGDTYLHWFLQKPGQSPKLLIYKVSNRFSGVPDRFSGSGSGTDFTLKISRVEAEDLGIYFCSQNTHVPYTFGGGTKLEIK
notes: as for B1
B6: 20I15 (antibody, V domains shown)
VH: EVKLVESGGGLVQPGGSLSLSCAASGFTFTDYYMSWVRQPPGKALEWLGFIRNKANGYTTEYSASVKGRFTISRDNSQSILYLQMNALRAEDSATYYCARTYLRRGYFDVWGTGTTVTVSS
VL: DIVLTQSPASLAVSLGQRATISCRASKSVSTSGYSYMHWFQQKPGQPPKLLIYLASNLESGVPARFSGSGSGTDFTLNIHPVEEEDAATYYCQHSRELPLTFGAGTKLELK
notes: From mouse immunisation; only variable domains given; also called 20115
B7: 19N05 (antibody, V domains shown)
VH: QIQLVQSGPELKKPGETVKISCKASGYTFTTYGMSWVKQAPGKGLKWMGWINTYSGVPTFADDFKGRFAFSLETSASTAYLQINNLKNEDTATFFCARNYYGNHYFDYWGQGTTLTVSS
VL: DVQITQSPSYLAASPGETISINCRASNNINKYLAWYQEKPGKTNKLLIYSGSTLQSGIPSRFSGSGSGTDFTLTISSLEPEDFAMYHCQQHNYYPLTFGAGTKLELK
notes: as for B2

Target: T1, Recombinant human PSGL-1(ECD)-hFc1 (R&D Systems, Cat. 3345-PS) (human, UniProt Q14242 42-305)
T1 construct: Bought; Gln42-Val295 counted on AAC50061; also called PSGL-1-Fc; PSGL-1-hFc1 chimera; not shown: human IgG1 Fc, Pro100-Lys330
T1 sequence: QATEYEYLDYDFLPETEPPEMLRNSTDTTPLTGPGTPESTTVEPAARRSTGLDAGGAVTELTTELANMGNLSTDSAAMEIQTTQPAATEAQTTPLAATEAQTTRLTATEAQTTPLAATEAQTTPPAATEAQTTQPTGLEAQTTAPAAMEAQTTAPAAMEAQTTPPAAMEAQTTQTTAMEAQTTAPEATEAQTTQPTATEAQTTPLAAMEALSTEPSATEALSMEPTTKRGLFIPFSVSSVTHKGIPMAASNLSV
Assay: blocking ELISA vs VISTA-Fc, pH 6.0

Binder | % max Block [%] | IC50 [nM]
B1 | 0 | 
B2 | 100 | 6
B3 | 100 | 8
B4 | 100 | 10
B5 | 0 | 
B6 | 85 | 30
B7 | 0 | 

Target: T1, Recombinant human PSGL-1(ECD)-hFc1 (R&D …)
Assay: ELISA, 50 nM mAb
Description: (§1) Recombinant PSGL-1-hFc1 chimera protein consisting of PSGL-1's extracellular domain (ECD) served as a positive control. […] Primary antibody was added (25 ul per well) in duplicate at 50 nM in assay buffer (blocking buffer containing 0.05% Tween®20) into test and control (just blocked) wells and the plate incubated for 45 min at 37° C.

Binder | A450nm [A450nm]
B1 | 1.99
B2 | 2.33
B3 | 2.33
B4 | 2.33
B5 | 2.05
B6 | 2.45

Target: T2, Human complement C4 protein (Millipore Sigma, Cat. 204886) (human, UniProt P0C0L4 20-675; P0C0L4 680-1446; P0C0L4 1454-1744, limits assumed, natural sulfotyrosines)
T2 construct: mature
Assay: ELISA, 50 nM mAb
Description: as §1

T2 sequence (P0C0L4 20-675 limits assumed, form in doubt, chain 1 of 3): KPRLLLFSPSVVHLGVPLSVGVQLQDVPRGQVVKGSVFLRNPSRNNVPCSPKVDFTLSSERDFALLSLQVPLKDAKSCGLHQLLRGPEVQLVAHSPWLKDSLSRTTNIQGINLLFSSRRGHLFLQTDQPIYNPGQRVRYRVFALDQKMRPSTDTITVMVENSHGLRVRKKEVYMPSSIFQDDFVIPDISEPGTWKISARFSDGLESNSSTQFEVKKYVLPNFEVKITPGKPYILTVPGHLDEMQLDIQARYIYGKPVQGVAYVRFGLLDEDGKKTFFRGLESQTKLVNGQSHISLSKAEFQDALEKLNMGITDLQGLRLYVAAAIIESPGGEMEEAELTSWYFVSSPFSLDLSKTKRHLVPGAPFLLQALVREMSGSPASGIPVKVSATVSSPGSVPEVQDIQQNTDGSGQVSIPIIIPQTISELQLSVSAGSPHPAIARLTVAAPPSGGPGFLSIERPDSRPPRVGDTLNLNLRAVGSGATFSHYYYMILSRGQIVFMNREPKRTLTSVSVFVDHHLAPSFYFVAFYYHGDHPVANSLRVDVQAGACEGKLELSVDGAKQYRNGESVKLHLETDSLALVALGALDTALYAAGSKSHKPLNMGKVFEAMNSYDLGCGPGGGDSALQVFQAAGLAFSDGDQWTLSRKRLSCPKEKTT
T2 sequence (P0C0L4 680-1446 limits assumed, form in doubt, chain 2 of 3): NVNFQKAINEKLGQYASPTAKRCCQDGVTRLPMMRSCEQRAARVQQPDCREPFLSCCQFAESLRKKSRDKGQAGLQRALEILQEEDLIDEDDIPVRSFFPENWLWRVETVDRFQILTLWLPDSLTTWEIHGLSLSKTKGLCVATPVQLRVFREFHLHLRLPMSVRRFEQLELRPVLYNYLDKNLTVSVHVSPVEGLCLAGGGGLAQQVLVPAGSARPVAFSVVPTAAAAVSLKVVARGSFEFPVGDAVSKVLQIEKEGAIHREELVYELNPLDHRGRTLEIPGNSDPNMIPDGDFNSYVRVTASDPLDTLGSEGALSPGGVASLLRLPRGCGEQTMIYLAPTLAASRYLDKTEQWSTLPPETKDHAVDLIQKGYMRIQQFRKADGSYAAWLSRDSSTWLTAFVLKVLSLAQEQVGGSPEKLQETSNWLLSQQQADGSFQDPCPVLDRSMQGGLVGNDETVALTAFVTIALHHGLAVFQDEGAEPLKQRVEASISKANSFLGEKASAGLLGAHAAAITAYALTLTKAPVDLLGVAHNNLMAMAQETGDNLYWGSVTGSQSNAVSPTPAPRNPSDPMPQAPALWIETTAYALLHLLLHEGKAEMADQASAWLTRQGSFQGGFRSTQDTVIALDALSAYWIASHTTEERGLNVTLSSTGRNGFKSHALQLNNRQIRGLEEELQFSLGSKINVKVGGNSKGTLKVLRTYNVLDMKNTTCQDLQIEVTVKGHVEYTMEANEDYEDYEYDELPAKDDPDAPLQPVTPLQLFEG
T2 sequence (P0C0L4 1454-1744 limits assumed, form in doubt, chain 3 of 3): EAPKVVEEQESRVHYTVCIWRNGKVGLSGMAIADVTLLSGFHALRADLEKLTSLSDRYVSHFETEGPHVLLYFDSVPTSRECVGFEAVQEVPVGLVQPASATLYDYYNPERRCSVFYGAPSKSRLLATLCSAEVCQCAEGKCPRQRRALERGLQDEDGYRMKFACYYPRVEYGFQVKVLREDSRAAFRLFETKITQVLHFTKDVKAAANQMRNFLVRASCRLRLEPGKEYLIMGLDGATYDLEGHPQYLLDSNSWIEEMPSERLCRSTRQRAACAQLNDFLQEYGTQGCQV

Binder | binding normalized to PSGL-1
B1 | 0.1
B2 | 0.02
B3 | -0.01
B4 | 0.03
B5 | 0.03
B6 | 0.09

Target: T3, SulfoTyr C4 peptide (not fully specified; Y4, Y7 and Y9 sulfated (SO3); C-terminal biotin)
T3 construct: also called C4 alpha chain peptide; human sulfotyrosinylated C4 peptide
T3 peptide: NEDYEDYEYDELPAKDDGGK
Assay: ELISA, 50 nM mAb
Description: as §1

Binder | binding normalized to PSGL-1 | binding result
B1 | 0.03 | 
B2 | 0.01 | no binding (tested: 50 nM)
B3 | -0.01 | no binding (tested: 50 nM)
B4 |  | no binding (tested: 50 nM)
B5 | 0.03 | 
B6 | 0.34 | 

Target: T4, Sulfotyr fibrinogen γ peptide (not fully specified; Y8 and Y12 sulfated (SO3); C-terminal biotin)
T4 construct: also called Fibrinogen gamma peptide; human sulfotyrosinylated fibrinogen peptide
T4 peptide: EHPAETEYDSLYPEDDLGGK
Assay: ELISA, 50 nM mAb
Description: as §1

Binder | binding normalized to PSGL-1 | binding result
B1 | 0.76 | 
B2 | 0.11 | 
B3 | -0.01 | no binding (tested: 50 nM)
B4 | 0.21 | 
B5 | 0.03 | 
B6 | 0.37 | 

Target: T5, Human fibrinogen protein (ThermoFisher, RP-43142) (human, UniProt P02671 20-629; P02675 31-491; P02679 27-453, limits assumed, natural sulfotyrosines)
T5 construct: mature; Native dimer with 3 pairs of non-identical chains; also called gamma-fibrinogen; γ fibrinogen protein
T5 sequence (looked up) 1: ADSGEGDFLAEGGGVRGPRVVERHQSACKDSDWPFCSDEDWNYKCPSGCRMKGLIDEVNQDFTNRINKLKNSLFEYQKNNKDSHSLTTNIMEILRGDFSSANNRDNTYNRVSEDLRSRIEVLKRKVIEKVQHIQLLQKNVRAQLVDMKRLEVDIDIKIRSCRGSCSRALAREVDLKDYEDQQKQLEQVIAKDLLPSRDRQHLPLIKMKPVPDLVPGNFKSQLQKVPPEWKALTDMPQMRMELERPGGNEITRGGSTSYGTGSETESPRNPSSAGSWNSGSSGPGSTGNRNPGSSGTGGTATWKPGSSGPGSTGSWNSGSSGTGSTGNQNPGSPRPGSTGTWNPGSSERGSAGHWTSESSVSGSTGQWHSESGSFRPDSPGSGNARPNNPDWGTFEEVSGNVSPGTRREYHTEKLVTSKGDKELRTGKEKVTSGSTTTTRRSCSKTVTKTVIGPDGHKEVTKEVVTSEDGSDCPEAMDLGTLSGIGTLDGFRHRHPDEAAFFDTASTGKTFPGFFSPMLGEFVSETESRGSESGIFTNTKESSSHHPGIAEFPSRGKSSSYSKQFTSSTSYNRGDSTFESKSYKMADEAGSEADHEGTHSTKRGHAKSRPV
T5 sequence (looked up) 2: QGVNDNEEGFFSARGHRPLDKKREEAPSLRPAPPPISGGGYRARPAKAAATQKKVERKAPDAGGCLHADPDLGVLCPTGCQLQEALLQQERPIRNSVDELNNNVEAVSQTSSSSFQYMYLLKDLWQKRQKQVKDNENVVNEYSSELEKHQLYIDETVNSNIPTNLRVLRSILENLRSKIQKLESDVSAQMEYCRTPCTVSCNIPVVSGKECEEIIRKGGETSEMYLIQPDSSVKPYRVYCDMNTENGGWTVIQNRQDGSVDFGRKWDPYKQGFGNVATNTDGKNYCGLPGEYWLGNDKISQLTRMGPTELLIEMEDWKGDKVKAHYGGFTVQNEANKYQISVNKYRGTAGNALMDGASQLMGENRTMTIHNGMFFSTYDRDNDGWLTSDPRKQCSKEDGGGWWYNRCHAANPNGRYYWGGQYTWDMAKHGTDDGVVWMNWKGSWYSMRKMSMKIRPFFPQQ
T5 sequence (looked up) 3: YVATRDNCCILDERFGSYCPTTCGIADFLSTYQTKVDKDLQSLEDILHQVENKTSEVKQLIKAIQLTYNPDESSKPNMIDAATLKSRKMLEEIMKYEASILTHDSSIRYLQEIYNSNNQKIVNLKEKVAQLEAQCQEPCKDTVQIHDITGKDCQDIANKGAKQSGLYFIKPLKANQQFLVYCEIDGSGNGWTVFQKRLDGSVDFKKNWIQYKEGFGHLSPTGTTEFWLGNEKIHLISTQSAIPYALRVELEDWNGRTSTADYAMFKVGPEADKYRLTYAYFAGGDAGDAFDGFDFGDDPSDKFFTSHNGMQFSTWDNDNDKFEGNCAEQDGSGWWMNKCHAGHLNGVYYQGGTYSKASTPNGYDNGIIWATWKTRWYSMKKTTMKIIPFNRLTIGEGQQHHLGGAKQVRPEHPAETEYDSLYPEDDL
Assay: ELISA, 50 nM mAb
Description: as §1

Binder | binding normalized to PSGL-1 | binding result
B1 | 1.3 | 
B2 |  | no binding (tested: 50 nM)
B3 | -0.01 | no binding (tested: 50 nM)
B4 | 0.01 | no binding (tested: 50 nM)
B5 | 0.03 | 
B6 | 0.06 | 

Target: T6, Sulfotyrosine D6 biotin peptide (human)
T6 construct: also called D6 peptide
T6 peptide: ENSSFY[sY][sY]D[sY]LDEVAFGGK(Biotin)
Assay: ELISA, 50 nM mAb
Description: as §1

Binder | binding normalized to PSGL-1 | binding result
B1 | 0.06 | 
B2 | 0.06 | 
B3 | 0.02 | no binding (tested: 50 nM)
B4 | 0.09 | 
B5 | 0.03 | 
B6 | 0.35 | 

Target: T7, Sulfotyrosine CCR2b biotin peptide (human)
T7 construct: also called CCR2b peptide
T7 peptide: TTFFD[sY]D[sY]GAPSHGGK(Biotin)
Assay: ELISA, 50 nM mAb
Description: as §1

Binder | binding normalized to PSGL-1 | binding result
B1 | 0.03 | 
B2 | 0.03 | 
B3 | 0.02 | no binding (tested: 50 nM)
B4 | 0.03 | 
B5 | 0.03 | 
B6 | 0.21 | 
